From the supplement of paper PMC9170038

Test system: MS2 coat protein
Experiment: apparent KD of MS2 coat protein; designed switch direction (-1 OFF switch, 1 ON switch): 1; higher = weaker reporter binding
In short: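 SNAP-549-labelled MS2 coat protein was titrated, doubling from 0.7 or 1.5 nM to 3 µM, over designed RNA switches transcribed on Illumina chips by stalled E. coli RNA polymerase. Runs were done without input, with 200 uM small-molecule ligand, or with an oligonucleotide input. Apparent KD is the per-design median over clusters of curve-fitted normalised fluorescence.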

[1] = Eterna round: R95, input ligand: FMN 200 uM
[2] = Eterna round: R95, input ligand: microRNA oligo, concentration not stated
[3] = Eterna round: R95, input ligand: none
[4] = input ligand: microRNA oligo, concentration not stated

Sequence	apparent KD of MS2 coat protein [1] [nM]	apparent KD of MS2 coat protein [2] [nM]	apparent KD of MS2 coat protein [3] [nM]	apparent KD of MS2 coat protein (input ligand: FMN 200 uM) [nM]	apparent KD of MS2 coat protein [4] [nM]	apparent KD of MS2 coat protein (input ligand: none) [nM]
AUUUAACAAGCUUUUUGCUCGUCUUAUAAACAUGAGGAUCACCCAUGUAAUAGCGUGAGAGUAAAUAAUUUAAUUAU [JMF 99] (puzzle: Sensor for hsa-mir-208a)	13.7	48.6	10.8			
AUUUUUAAUGCAGGAUAUGAUUAACAUGAGGAUCACCCAUGUGGUGUUGUGAGUAAGGAGAGUGAUCAGAAGGGCAUUUUUUGU [JMF's solution 87] (Eterna round: R96, puzzle: Same State NG 2)				827	301	621
CAGCGCUGUCGAGAGGAUAUGUGGUGAUGGACAUGAGGAUCACCCAUGUUAGCGACAGCAUCACGGCAGAAGGCUCUACCGCUGC [Soteed Omei mod 30] (puzzle: Same State 2)	31.2	40.6	23.1			
CAGCGCUGUUGAGAGGAUAUGCGGUGAUGGACAUGAGGAUCACCCAUGUUAGCGACAGCAUUACGGCAGAAGGCUUCACAGCUGC [Soteed Omei mod 17] (Eterna round: R96, puzzle: Same State 2)				13.9	36.9	47.1
CAGCGCUGUUGAGAGGAUAUGCGGUGAUGGACAUGAGGAUCACCCAUGUUAGCGACAGCAUUACGGCAGAAGGCUUCACAGCUGC [Soteed Omei mod 17] (puzzle: Same State 2)		39.3				
CAGCGCUGUUGAGAGGAUAUGCGGUGAUGGACAUGAGGAUCACCCAUGUUAGCGAUAGCAUUACGGUAGAAGGCUCUACAGCUGC [Soteed Omei mod 3] (puzzle: Same State 2)		14				
CAGUGCUGUUGAGAGGAUAUGCGGCGACGGACAUGAGGAUCACCCAUGUUAGCGACAGCGUUGCGGCAGAAGGCUCUGCCCACUG [Soteed Omei mod 49] (puzzle: Same State 2)		8.8				
CAUAAUAAAACGGAGGAUAUGCUACCCUUCACAUGAGGAUCACCCAUGUUACCCUCUUAUUUUCAGUAGAAGGCCGAUACAUAAC [Delilah] (puzzle: Same State 2)	38.1	31.9	38.9			
CAUCAUGCGUCUAAGGAUAUGUCUCACAAGACAUGAGGAUCACCCAUGUAGAAUAAAUAAAUGAUGCAGAAGGUGGAGCGCAUGC [Erzausis] (Eterna round: R96, puzzle: Same State 2)					253	
CAUCUAUACGUAGGAUAUGUAGGAUAUGCCUACAUGAGGAUCACCCAUGUUCGCAUGGCAGAAGGACAGAAGGACGAACUACUU [pwkr ssNG2 2FMN + 1F5.6] (Eterna round: R96, puzzle: Same State NG 2)				32.4	174	234
CAUCUAUACUUAGGAUAUGUAGGAUAUGCCUACAUGAGGAUCACCCAUGUUCGCAUGGCAGAAGGACAGAAGGAAGAACUACUU [pwkr ssNG2 2FMN + 1F5.5] (Eterna round: R96, puzzle: Same State NG 2)				94.3	57.3	266
CCAGGACAUGAGGAUCACCCAUGUGCUUAAUGUGGAGAAUCUCAGGAUAUCAUGAGGAUCACCCAUGAGAAGGGAGAUCCGAGG (Eterna round: R96, puzzle: Same State NG 3)				573	234	398
CCAUAACAGUGAGGAUAUUGUUGCGAUAAGUGACGAGAAGGCAUUUAUGUGAAAUAAACAUACAUGAGGAUCACCCAUGUUGUA [Omei SS(NG)1 Bv4] (Eterna round: R96, puzzle: Same State NG 1)				17.3	16.7	22.3
CCGAUUUAUGGAGGAUAUGGAGCCUUAUUGGCUCCAGAAGGUCAAUAACAUGAGGAUCACCCAUGUACGGCGGUCAAUAGACCG [Eli NG1ss - 70] (Eterna round: R96, puzzle: Same State NG 1)				24.8	28.1	34.6
CCGUAAAAUGGAGGAUAUGGAGCCUUAUUGGCUCCAGAAGGUCAUAAAACAUGAGGAUCACCCAUGUCGGCGGUCAAUAGACCG [Eli NG1ss - 78] (Eterna round: R96, puzzle: Same State NG 1)					31.5	
CCGUAGAUGGUAGGAUAUGGAGCCUUAUUGGCUCCAGAAGGAUCGAAACAUGAGGAUCACCCAUGUUCGGCGGUCAAUAGACCG [Eli NG1ss - 85] (Eterna round: R96, puzzle: Same State NG 1)				22.5	17.6	23.9
CGAUGAUACUCAGGAAGGAGAGUAGAGGAACAUGAGGAUCACCCAUGUAUGAGCUUUUUGCUCGUCAUGAACAGGAG [JR_SHM208a_Sub009] (puzzle: Sensor for hsa-mir-208a)	107	64.4	111			
CGCCAAUUGGCACAGGAUAUGAGCAUGCUCACAUGAGGAUCACCCAUGUGAUUACCAACGCAAAAUCAGAAGGGUGCCCUCGUCA [Beanza] (Eterna round: R96, puzzle: Same State 2)				80.6	99.1	164
CGCCAGAGAACAGGAUAUGGGCCGCGGCCUAUGGGCUGCUAACUCACAUGAGGAUCACCCAUGUCCCAGAAGGGUUCCUGGCGG [Xediat] (Eterna round: R96, puzzle: Same State NG 2)				472	23.1	262
CGCGCUCCGGUAGGAUAUGAGGUGCCGUAGGGACCCGCCUACGGACAUGAGGAUCACCCAUGUCCUCAGAAGGACCGGGCGUGA [Soenonorma] (Eterna round: R96, puzzle: Same State NG 2)				15.1	29.6	35.5
CGGGUGGUUCUAGGAUAUCUAGGAUAUGGACGAGGAUUACCCGAGCAGCAUUAGCGCACCAGAGGAGAGAAGGAGAGUGAUGCG [pwkr ssNG2 2F5 2FMN.16] (Eterna round: R96, puzzle: Same State NG 2)				251	3.25	53.3
CGUACACAUGAGGAUCACCCAUGUCAGAUUUGGUCAGGAUAUGGGCGGCAUCCGCUAUUGCCAGAAGGGACUGUUG [JR_SS001_Sub703] (Eterna round: R96, puzzle: Same State 1)				156	43.4	64.8
CGUAGGUAGCUGGAGGAUAUCUGAGUGGUAACAUGAGGAUCACCCAUGUGAUGUGAGGAACAUGAGGAGAAGGCUAGCUGCCUGC [JL-ss2-3.13 JL mod] (puzzle: Same State 2)	21.4	42.2	43.5			
CGUCCGGCCUGUGCUGGCCGGUAGCAUGUACAUGAGGAUCACCCAUGUUCAUGUGCAGGCUUUUUGCUCGUCUUGUG [salish99_mir208a_r3_007] (puzzle: Sensor for hsa-mir-208a)	34	12.3	33.8			
